The record followed here is paper PMC12260427.

As a reminder, the Kd is the concentration at which binding is half-saturated. Read a high Kd as weaker binding.

Read-outs that look alike come from different tables or passages of the source.

The target in data set [1] is T1, alpha-thrombin (Homo sapiens, UniProt P00734;P00734 328-363;364-622). The experiment in a line: native MS.
Data set [2] concerns the target T1, alpha-thrombin. The data set can be described thus: EMSA. In general terms: In EMSA bound probe runs differently from free probe, usually more slowly.
Data set [3] addresses T1, alpha-thrombin. The experiment in a line: ITC.
The target in data set [4] is T1, alpha-thrombin. The experiment in a line: ITC. This is another data set of the same source. (In general: In ITC the heat of successive injections is recorded.)
The target in data set [5] is T1, alpha-thrombin. The data set can be described thus: ITC. This is another data set of the same source.

B1: ss(ATTCG)18 (ssDNA)
DNA: ATTCGATTCGATTCGATTCGATTCGATTCGATTCGATTCGATTCGATTCGATTCGATTCGATTCGATTCGATTCGATTCGATTCGATTCG
In the case of B1, in the data set with alpha-thrombin [1], the binding result is on record as “no binding”.

B2: ss(GGAAT)18 (ssDNA)
DNA: GGAATGGAATGGAATGGAATGGAATGGAATGGAATGGAATGGAATGGAATGGAATGGAATGGAATGGAATGGAATGGAATGGAATGGAAT
On to B2, for which the binding result with alpha-thrombin [2] is on record as “no binding”.

B3: ss(ATTCC)18 (structured_DNA)
DNA: ATTCCATTCCATTCCATTCCATTCCATTCCATTCCATTCCATTCCATTCCATTCCATTCCATTCCATTCCATTCCATTCCATTCCATTCC
With B3, the results for the dissociation constant Kd with alpha-thrombin [3], with alpha-thrombin [4] and in the data set with alpha-thrombin [5] were 746 nM, 174 nM and 1460 nM, respectively.
